# Data as given in US20240059797A1 (GRITSTONE BIO, published 2024).
# B1: 4-anti-CD3-G2(1H11) (bispecific antibody)
# chain: not shown
# heavy: QVQLVQSGAEVKKPGASVKVSCKASGYTFTNYYMHWVRQAPGQGLEWMGMINPSGGGTSYAQKFQGRVTMTRDTSTSTVYMELSSLRSEDTAVYYCARGNPWELRLDYWGQGTLVTVSSGGGGSGGGGSGGGGSGGGGSDIQMTQSPSSLSASVGDRVTITCQASQDISNYLNWYQQKPGKAPKLLIYAASSLQSGVPSRFSGSGSGTDFTLTISSLQPEDFATYYCQQYYSYPFTFGPGTKVDIKGGGGSGGGGSEVQLVESGGGLVQPGGSLRLSCAASGFTFSTYAMNWVRQAPGKGLEWVGRIRSKYNNYATYYADSVKGRFTISRDDSKNTLYLQMNSLRAEDTAVYYCVRHGNFGDSYVSWFAYWGQGTLVTVSSASTKGPSVFPLAPSSKSTSGGTAALGCLVKDYFPEPVTVSWNSGALTSGVHTFPAVLQSSGLYSLSSVVTVPSSSLGTQTYICNVNHKPSNTKVDKRVEPKSCDKTHTCPPCPAPELLGGPSVFLFPPKPKDTLMISRTPEVTCVVVDVSHEDPEVKFNWYVDGVEVHNAKTKPREEQYQSTYRVVSVLTVLHQDWLNGKEYKCKVSNKALPAPIEKTISKAKGQPREPQVCTLPPSREEMTKNQVSLSCAVKGFYPSDIAVEWESNGQPENNYKTTPPVLDSDGSFFLVSKLTVDKSRWQQGNVFSCSVMHEALHNRFTQKSLSLSPGK
# light: QAVVTQEPSLTVSPGGTVTLTCGSSTGAVTTSNYANWVQQKPGKSPRGLIGGTNKRAPGVPARFSGSLLGGKAALTISGAQPEDEADYYCALWYSNHWVFGGGTKLTVLRTVAAPSVFIFPPSDEQLKSGTASVVCLLNNFYPREAKVQWKVDNALQSGNSQESVTEQDSKDSTYSLSSTLTLSKADYEKHKVYACEVTHQGLSSPVTKSFNRGEC
# notes: also called 4-G2(1H11)-αCD3
# What was measured:
# [1] = target: T1, HLA-A*01:01_… (G2) presented on cells (human); experiment: flow cytometry, peptide-pulsed K562 cells
# T1 construct: whole, on cells; K562 transduced with HLA-A*01:01 and pulsed with peptide, or A375 transduced with a 10x peptide cassette; also called G2 on K562 or A375 cells
# Protocol: Cells were harvested, washed in PBS, and stained with eBioscience Fixable Viability Dye eFluor 450 for 15 minutes at room temperature. Following another wash in PBS+2% FBS, cells were resuspended with bispecifics at varying concentrations. Cells were incubated with bispecifics for 1 hour at 4° C. […] After incubating at 4° C. for 45 minutes and washing in PBS+2% FBS, cells were resuspended in PBS+2% FBS and analyzed by flow cytometry. […] All cell lines were stained and analyzed with bispecific binding using the same methods as the K562 cells.
# Flow cytometric analysis was performed on the Attune NxT Flow Cytometer (ThermoFisher) using the Attune NxT Software. Data was analyzed using FlowJo.
# [2] = target: T2, HLA-A*01:01_… (HLA-PEPTIDE target G2), recombinant biotinylated complex (human, enzymatically biotinylated (BirA)); experiment: BLI
# T2 construct: also called G2-pHLA
binder,measurement,setting,value
B1,binding result,[1],binds
same,binding result,[2],binds
